Several values for one entry are separate records, joined by “and”; a condition that tells them apart may be missing. Equal entries are not always repeated.
Legend:
[1] = molecular target: HtrAHp S221A, proteolytically inactive variant of HtrA from H. pylori 26695 (plasmid pUZ3) (Helicobacter pylori (strain 26695)); assay: SEC; Superose 12HR10/30, 50 mM Na2HPO4/NaH2PO4 pH 7.4, 300 mM NaCl, room temperature, 41 µM HtrA, no substrate; S/A mutants purified in presence of urea and refolded
[2] = molecular target: HtrACj wild type, proteolytically active (plasmid pUZCj4) (Campylobacter jejuni (strain NCTC11168)) (UniProt Q0P928); assay: SEC; Superose 12HR10/30, 50 mM Na2HPO4/NaH2PO4 pH 7.4, 300 mM NaCl, room temperature; 41 µM HtrA pre-incubated with 41 µM β-casein (molar ratio 1:1) for 10 min at 37°C
[3] = molecular target: HtrACj wild type, proteolytically active (plasmid pUZCj4) (Campylobacter jejuni (strain NCTC11168)) (UniProt Q0P928); assay: casein zymography (non-reducing SDS-PAGE); 50 ng purified HtrA in Laemmli buffer on 10% SDS-PAGE gels with 0.1% casein, non-reducing, renatured in 2.5% Triton X-100, developed overnight at 37°C
[4] = molecular target: HtrACj wild type, proteolytically active (plasmid pUZCj4) (Campylobacter jejuni (strain NCTC11168)) (UniProt Q0P928); assay: SEC; Superose 12HR10/30, 50 mM Na2HPO4/NaH2PO4 pH 7.4, 300 mM NaCl, room temperature, 41 µM HtrA, no substrate; proteins purified under native conditions without refolding step
[5] = molecular target: HtrACj S197A, proteolytically inactive variant (plasmid pUZCj5) (Campylobacter jejuni (strain NCTC11168)) (UniProt Q0P928); assay: SEC; Superose 12HR10/30, 50 mM Na2HPO4/NaH2PO4 pH 7.4, 300 mM NaCl, room temperature, 41 µM HtrA, no substrate; S/A mutants purified in presence of urea and refolded
[6] = molecular target: HtrACj S197A, proteolytically inactive variant (plasmid pUZCj5) (Campylobacter jejuni (strain NCTC11168)) (UniProt Q0P928); assay: SEC; Superose 12HR10/30, 50 mM Na2HPO4/NaH2PO4 pH 7.4, 300 mM NaCl, room temperature, 41 µM HtrA, no substrate; proteins purified under native conditions without refolding step
[7] = molecular target: HtrACj S197A, proteolytically inactive variant (plasmid pUZCj5) (Campylobacter jejuni (strain NCTC11168)) (UniProt Q0P928); assay: SEC; Superose 12HR10/30, 50 mM Na2HPO4/NaH2PO4 pH 7.4, 300 mM NaCl, room temperature, 41 µM HtrA, no substrate; S/A mutants purified in presence of urea and refolded; remark: listed apart in the source
[8] = molecular target: HtrACj S197A, expressed without the predicted signal peptide (residues 17-472), protease-inactive mu (Campylobacter jejuni (strain 81-176)); assay: cryo-EM structure
[9] = molecular target: the molecule itself; assay: SEC; Superose 12HR10/30, 50 mM Na2HPO4/NaH2PO4 pH 7.4, 300 mM NaCl, room temperature, 41 µM HtrA, no substrate; S/A mutants purified in presence of urea and refolded

HtrAHp S221A, proteolytically inactive variant of HtrA from H. pylori 26695 (plasmid pUZ3) (enzyme)
stoichiometry N [1]: 3 and 6

HtrACj wild type, proteolytically active (plasmid pUZCj4) (from UniProt Q0P928 1-472) (enzyme)
stoichiometry N [2]: 6 | stoichiometry N [3]: 3 | stoichiometry N [4]: 6

HtrACj S197A, proteolytically inactive variant (plasmid pUZCj5) (from UniProt Q0P928 1-472) (enzyme)
stoichiometry N [5]: > 12 | stoichiometry N [6]: 12 | stoichiometry N [7]: 12

HtrACj S197A, expressed without the predicted signal peptide (residues 17-472), protease-inactive mu (enzyme)
stoichiometry N [8]: 12

B1: HtrAEc S210A, proteolytically inactive variant of HtrA/DegP from E. coli (plasmid pJS17) (enzyme, UniProt P0C0V0 27-474, looked up)
chain: AETSSATTAQQMPSLAPMLEKVMPSVVSINVEGSTTVNTPRMPRNFQQFFGDDSPFCQEGSPFQSSPFCQGGQGGNGGGQQQKFMALGSGVIIDADKGYVVTNNHVVDNATVIKVQLSDGRKFDAKMVGKDPRSDIALIQIQNPKNLTAIKMADSDALRVGDYTVAIGNPFGLGETVTSGIVSALGRSGLNAENYENFIQTDAAINRGNAGGALVNLNGELIGINTAILAPDGGNIGIGFAIPSNMVKNLTSQMVEYGQVKRGELGIMGTELNSELAKAMKVDAQRGAFVSQVLPNSSAAKAGIKAGDVITSLNGKPISSFAALRAQVGTMPVGSKLTLGLLRDGKQVNVNLELQQSSQNQVDSSSIFNGIEGAEMSNKGKDQGVVVNNVKTGTPAAQIGLKKGDVIIGANQQAVKNIAELRKVLDSKPSVLALNIQRGDSTIYLLMQ
notes: also called S/A mutant of HtrAEc
stoichiometry N [9]: 6

Source: PMC7524362, “Functional analysis and cryo-electron microscopy of Campylobacter jejuni serine protease HtrA” (Gut Microbes, 2020)
